Experimental data as given in patent US12162924B2, “Method for the design of fibrillar collagen-mimetic peptide self-assemblies” (WISCONSIN ALUMNI RESEARCH FOUNDATION, priority 2016, dated 2024).
Values joined by “and” are separate entries in the source; they are usually repeats but may differ in a detail not shown here. Identical values can stand only once. Non-standard residues stand in square brackets, D forms with d. No end group written: not given here. Hyp = O=C(O)[C@@H]1C[C@@H](O)CN1; Orn = NCCC[C@H](N)C(=O)O

Assays:
Type in all cases: physicochemical
[1] = CD thermal denaturation (melting temperature of triple-helical assemblies); details: for Tm (° C.): Table 2, constructs that self-assemble
Description: All CD data were acquired with a 202SF or 420 CD spectrophotometer from Aviv Biomedical (Lakewood, N.J.) at the UW BIF. Samples were prepared at a concentration of 0.6 mg/mL (˜160 μM) in 10 mM sodium phosphate buffer, pH 7.0, both with and without NaCl (180 mM). CD spectra were recorded at 4° C. with a 1-nm band-pass in quartz cuvettes with a 0.1-cm pathlength, using an averaging time of 4 s. For thermal denaturation experiments the CD signal was monitored at 226 nm while the sample was heated at a rate of 12° C./h in 2- or 3-° C. steps. The melting transition is indicated by a minimum on the temperature derivative of the melting curve (∂[θ]/∂T), and values (±1° C.) of melting temperature (Tm) were determined assuming constant curvature in the immediate vicinity of the transition minimum.

[2] = Vitreous ice cryo-TEM imaging; details: 0.3 mg/mL, flash frozen in liquid ethane
Description: (§1) All imaging was performed with a Tecnai TF-30 TEM instrument (300 kV) from FEI (Hillsboro, Oreg.) at the UW Materials Science Center (MSC; msc.engr.wisc.edu). Samples were prepared on Quantifoil R1.2/1.3 holey-carbon mesh on copper grids. Sample preparation for dry TEM was carried out at 4° C. Samples were negative-stained using freshly prepared 2.0% w/w PTA solution adjusted to pH 6 with aqueous NaOH and filtered. The peptide solution was allowed to adhere to the carbon-mesh side of the grid for 1 min, at which point excess solution was blotted with filter paper, and the grid was allowed to dry for 5 min. Negative stain was applied for 10 min by inverting the grid on a drop of PTA solution. Excess stain was removed with filter paper, and the grid was allowed to dry overnight prior to imaging. For vitreous ice cryo-TEM imaging, a solution of OKD (0.3 mg/mL) was applied to a TEM grid, glow discharged for 0.5 min at 25 mA beforehand with a Pelco easiGlow unit from Ted Pella (Redding, Calif.). The grid was allowed to equilibrate at 5° C. at 95% humidity. A drop of peptide solution was added, and the grid was then blotted and immersed in liquid ethane on a Vitrobot from FEI. The grid was transferred from liquid ethane to liquid nitrogen manually, and was stored in liquid nitrogen until imaging. Acquisition was performed at −180° C. with low dose and long exposures.

[3] = Negative-stained (dry) TEM imaging of peptide assemblies; details: for Feature dimensions (nm), nanofiber diameter by TEM: dried, negative-stained, mean±SD
Description: as §1

[4] = Rheology of peptide hydrogels / hydrogel formation
Description: This solution is placed in an airtight container, heated to 65° C. in a large water bath and annealed down to room temperature, overnight. The resulting hydrogel is subjected to rheological analysis (FIG. 15a).
Rheology on peptide hydrogels was performed on a TA ARES rheometer at the Soft Materials Laboratory at the University of Wisconsin—Madison, using 8-mm stainless-steel parallel-plate geometry with a 1 mm gap size. Strain sweeps (0.01-200%) maintained a fixed frequency of 2 rad/s, while a fixed strain of 1% was applied for frequency sweeps (0.1-100 rad/s).

[5] = Tapping-mode atomic force microscopy on mica; details: annealed at 0.03 mg/mL, freshly cleaved mica
Description: Peptide samples were annealed at 0.03 mg/mL in 10 mM sodium phosphate buffer, pH 7.0, and applied onto freshly cleaved mica at 4° C. After 10 min, the solution of peptide was washed with cold water for 30 s, and excess water was removed with a filter paper. Samples were dried at 4° C. overnight prior to imaging. AFM images were collected in tapping mode with an Agilent 5500 SPM instrument using NCHV-A probes from Bruker (Billerica, Mass.). Data were analyzed with Gwyddion ver. 2.39 software (gwyddion.net).
Although the softness of the material led to artifacts and necessitated frequent use of fresh probes, the images clearly and consistently present the self-assembled OKD nanofibers.

[6] = Evidence for symmetric self-assembly (AUC/CD/DLS/TEM/AFM/Rheology); details: Table 3
Description: These peptides follow the following criteria for symmetric triple-helical self-assembly: • o. Peptides should embody the uninterrupted Xaa-Yaa-Gly tripeptide repeats of collagens • Peptides should be constructed to allow the formation of a polyproline-II helix. For this, their sequence should have a Gly at every third position. In addition, Pro residues should be favored at Xaa positions and Pro or Hyp residues at Yaa positions. Resulting peptides are collagen-mimetic peptides (CMPs). • i. Repulsive interstrand interactions should be installed to prevent the formation of the blunt-ended homotrimeric state. • CMPs are prone to forming blunt-ended triple helices, in general. This state should be destabilized to enable CMPs to associate with sticky-ends. • ii. The number of tripeptide repeats, nT, that constitute the CMP cannot be evenly divisible by three. • Satisfaction of this criterion is essential to obtain identical strand-offsets in the assembled state. […] This offset is nT residues for a peptide with nT tripeptide repeats. […] Thus, it is necessary to introduce attractive interstrand interactions to CMP designs that stabilize triple-helix formation only when they associate with nT-residue offsets.

PKGPKGPKGPOGPOGDOGDOGDOGPOGPOGPO (PKGPKGPKGP[Hyp]GP[Hyp]GD[Hyp]GD[Hyp]GD[Hyp]GP[Hyp]GP[Hyp]GP[Hyp]) [Peptide 3sb-KDO]
Tm (° C.) [1]: 13 °C

PKGPKGPKGPOGPOGDOGDOGDOGPOGPOGPOG (PKGPKGPKGP[Hyp]GP[Hyp]GD[Hyp]GD[Hyp]GD[Hyp]GP[Hyp]GP[Hyp]GP[Hyp]G) [Peptide 3sbG-KDO]
Tm (° C.) [1]: 26 °C

POGPOGPCysGPKGPKGPKGPKGPOGPOGDOGDOGDOGDOGPOG (PXGPXGPCGPKGPKGPKGPKGPXGPXGDXGDXGDXGDXGPXG; hydroxyproline residues; MOD_RES (2)..(2) 4Hyp; MOD_RES (5)..(5) 4Hyp; MOD_RES (23)..(23) 4Hyp; MOD_RES (26)..(26) 4Hyp; MOD_RES (29)..(29) 4Hyp; MOD_RES (32)..(32) 4Hyp; MOD_RES (35)..(35) 4Hyp; MOD_RES (38)..(38) 4Hyp; MOD_RES (41)..(41) 4Hyp) [OKD2-C8]
Tm (° C.) [1]: 45 °C

POGPOGPOGPKGPKGPKGPKGHcyOGPOGDOGDOGDOGDOGPOG (PXGPXGPXGPKGPKGPKGPKGXXGPXGDXGDXGDXGDXGPXG; homocysteine, hydroxyproline residues; MOD_RES (2)..(2) 4Hyp; MOD_RES (5)..(5) 4Hyp; MOD_RES (8)..(8) 4Hyp; MOD_RES (22)..(22) Homocysteine; MOD_RES (23)..(23) 4Hyp; MOD_RES (26)..(26) 4Hyp; MOD_RES (29)..(29) 4Hyp; MOD_RES (32)..(32) 4Hyp; MOD_RES (35)..(35) 4Hyp; MOD_RES (38)..(38) 4Hyp; MOD_RES (41)..(41) 4Hyp) [OKD2-h22]
Tm (° C.) [1]: 50 °C

POGPOGPOGPKGPKGPKGPOGPOGDOGDOGDO (P[Hyp]GP[Hyp]GP[Hyp]GPKGPKGPKGP[Hyp]GP[Hyp]GD[Hyp]GD[Hyp]GD[Hyp]) [Peptide 3sb-OKD]
Tm (° C.) [1]: 20 °C

POGPOGPOGPKGPKGPKGPOGPOGDOGDOGDOG (P[Hyp]GP[Hyp]GP[Hyp]GPKGPKGPKGP[Hyp]GP[Hyp]GD[Hyp]GD[Hyp]GD[Hyp]G) [Peptide 3sbG-OKD]
Tm (° C.) [1]: 33 °C

POGPOGPOGPOGPKGPKGPKGPKGPOGPOGDOGDOGDOGDO (P[Hyp]GP[Hyp]GP[Hyp]GP[Hyp]GPKGPKGPKGPKGP[Hyp]GP[Hyp]GD[Hyp]GD[Hyp]GD[Hyp]GD[Hyp]) [Peptide 4sb-OKD]
Tm (° C.) [1]: 36 °C

POGPOGPOGPOGPKGPKGPKGPKGPOGPOGDOGDOGDOGDOG (PXGPXGPXGPXGPKGPKGPKGPKGPXGPXGDXGDXGDXGDXG; hydroxyproline residues; MOD_RES (2)..(2) 4Hyp; MOD_RES (5)..(5) 4Hyp; MOD_RES (8)..(8) 4Hyp; MOD_RES (11)..(11) 4Hyp; MOD_RES (26)..(26) 4Hyp; MOD_RES (29)..(29) 4Hyp; MOD_RES (32)..(32) 4Hyp; MOD_RES (35)..(35) 4Hyp; MOD_RES (38)..(38) 4Hyp; MOD_RES (41)..(41) 4Hyp) [OKD]
diameter of solvated nanofibers (cryo-TEM) [2]: 3.8±0.5 nm | Tm (° C.) I = 20 mM ([1]; CD at 226 nm, 0.6 mg/mL, 10 mM sodium phosphate pH 7.0, low ionic strength I = 20 mM): 49 °C | Tm (° C.) I = 200 mM ([1]; CD at 226 nm, 0.6 mg/mL, 10 mM sodium phosphate pH 7.0 with 180 mM NaCl, I = 200 mM): 39 °C | Tm (° C.) [1]: 49 °C | length of triple-helical stretches ([3]; TEM): ≤ 0.3 μm | Feature dimensions (nm), nanofiber diameter by TEM [3]: 2.3±0.4 nm | hydrogel formation ([4]; 4sbG series peptides): form hydrogels | G′ (storage modulus) ([4]; hydrogel at 1% concentration): 0.5 kPa | G″ (loss modulus) ([4]; hydrogel at 1% concentration): 0.05 kPa | nanofiber length (AFM) [5]: up to 0.5 μm | nanofiber thickness/diameter (AFM) [5]: 1.2±0.2 nm and 1.2 nm

POGPOGPOGPOrGPOrGPOrGPOGPOGDOGDOGDO (P[Hyp]GP[Hyp]GP[Hyp]GP[Orn]GP[Orn]GP[Orn]GP[Hyp]GP[Hyp]GD[Hyp]GD[Hyp]GD[Hyp]) [Peptide 3sb-OOrD]
Evidence (constructs that do not reliably self-assemble) [6]: no structure

B1: POGPOGPO…cyOGPOGDOGDOGDOGDOGPOG / POGPOGPCysGPKGPKGPKGPKGPOGPOGDOGDOGDOGDOGPOG (peptide)
chain 1: PXGPXGPXGPKGPKGPKGPKGXXGPXGDXGDXGDXGDXGPXG
chain 2: PXGPXGPCGPKGPKGPKGPKGPXGPXGDXGDXGDXGDXGPXG
modifications: not fully specified; homocysteine-cysteine crosslinked heterodimer; MOD_RES (2)..(2) 4Hyp; MOD_RES (5)..(5) 4Hyp; MOD_RES (8)..(8) 4Hyp; MOD_RES (22)..(22) Homocysteine; MOD_RES (23)..(23) 4Hyp; MOD_RES (26)..(26) 4Hyp; MOD_RES (29)..(29) 4Hyp; MOD_RES (32)..(32) 4Hyp; MOD_RES (35)..(35) 4Hyp; MOD_RES (38)..(38) 4Hyp; MOD_RES (41)..(41) 4Hyp
Tm (° C.) [1]: 60 °C | Feature dimensions (nm), nanofiber diameter by TEM [3]: 2.4±0.4 nm
